Patent US20100092974A1, “METHODS FOR SCREENING FOR MODULATORS OF CCRL2” (The Board of Trustees of the Leland Stanford Junior …, priority 2008, published 2010)
Each block holds one molecule with its values, some of them ahead of it.

Key:
[1] = biological target: T1, mCCRL2 (Mus musculus, UniProt O35457); experiment: chemerin binding/anti-mCCRL2 mAb displacement on peritoneal mast cells (flow cytometry); conditions: 1000 nM
T1 construct: The coding regions of mCCRL2, huCCRL2, mCRTH2, and huCCR10 were amplified from genomic DNA; expressed in transfected cells
T1 sequence (O35457 1-360): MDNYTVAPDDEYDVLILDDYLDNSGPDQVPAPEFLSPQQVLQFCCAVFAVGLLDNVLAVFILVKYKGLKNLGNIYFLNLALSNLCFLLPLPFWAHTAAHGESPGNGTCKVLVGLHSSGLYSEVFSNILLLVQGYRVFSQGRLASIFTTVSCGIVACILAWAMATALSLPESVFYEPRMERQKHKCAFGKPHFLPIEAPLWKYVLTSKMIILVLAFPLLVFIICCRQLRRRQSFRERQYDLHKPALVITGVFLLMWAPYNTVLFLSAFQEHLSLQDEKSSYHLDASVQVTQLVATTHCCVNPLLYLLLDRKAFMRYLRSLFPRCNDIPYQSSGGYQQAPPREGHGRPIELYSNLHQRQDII

[2] = biological target: T1, mCCRL2; experiment: in vitro transwell chemotaxis, mCCRL2/L1.2 transfectants; format: cell-based
Procedure: For migration experiments using cell lines, 2.5×10^5 cells/100 μl chemotaxis media (RPMI+10% fetal calf serum) were added to the top wells of 5-um pore transwell inserts (Costar, Corning, N.Y., USA), and test samples in 600 μl media were added to the bottom wells. After incubating the transwell plates for 1.5 hours at 37° C., the bottom wells were harvested and flow cytometry was used to assess migration. For primary cell chemotaxis, 1×10^6 cells/100 μl were added to the top well, and, following a 2 hour incubation at 37° C., polystyrene beads (15.0 μm diameter, Polysciences, Warrington, Pa., USA) were added to each well to facilitate normalization of the cell count. The cells were then stained for c-kit, F4/80, and/or CD11b expression and analyzed by flow cytometry. A ratio was generated and percent input migration was calculated.

[3] = biological target: T1, mCCRL2; experiment: intracellular calcium mobilization, CCRL2/HEK293 transfectants; format: cell-based; conditions: HEK293 background, alone or in combination
Procedure: Chemoattractant-stimulated Ca^2+-mobilization was performed following Alliance for Cell Signaling protocol ID PP00000210. Cells (3×10^6/mL) were loaded with 4 μM Fluo4-AM and 0.16% Pluronic acid F-127 (Molecular Probes) in modified Iscove's medium (Iscove's medium with 1% heat inactivated bovine calf serum and 2 mM L-glutamine, Invitrogen) for 30 minutes at 37° C. The samples were mixed every 10 minutes during loading, washed once, resuspended at up to 2×10^6/mL in the same buffer, and allowed to rest in the dark for 30 minutes at room temperature. Chemoattractant-stimulated change in Ca^2+-sensitive fluorescence of Fluo-4 was measured over real-time with a FACsScan flow cytometer and CellQuest software (BD Biosciences) at room temperature under constant stirring (500 rpm). Fluorescent data were acquired continuously up to 1024 seconds at 1-second intervals. The samples were analyzed for 45 seconds to establish basal state, removed from the nozzle to add the stimuli, and then returned to the nozzle. Mean channel fluorescence over time was analyzed with FlowJo (TreeStar, Ashland, Oreg., USA) software. […] 500 μl of these chemerin-loaded cells were added to mCMKLR1/L1.2 cells loaded with Fluo4-AM, and calcium mobilization was evaluated.

[4] = biological target: T2, mouse CMKLR1 (chemokine-like receptor 1), untagged (mouse, UniProt P97468 1-371); experiment: radioligand competition on L1.2 transfectants; displaces 125I-chemerin 21-148; 9-mer peptide … on CMKLR1
T2 construct: whole, on cells; also called mCMKLR1; mCMKLR1/L1.2
T2 sequence (looked up): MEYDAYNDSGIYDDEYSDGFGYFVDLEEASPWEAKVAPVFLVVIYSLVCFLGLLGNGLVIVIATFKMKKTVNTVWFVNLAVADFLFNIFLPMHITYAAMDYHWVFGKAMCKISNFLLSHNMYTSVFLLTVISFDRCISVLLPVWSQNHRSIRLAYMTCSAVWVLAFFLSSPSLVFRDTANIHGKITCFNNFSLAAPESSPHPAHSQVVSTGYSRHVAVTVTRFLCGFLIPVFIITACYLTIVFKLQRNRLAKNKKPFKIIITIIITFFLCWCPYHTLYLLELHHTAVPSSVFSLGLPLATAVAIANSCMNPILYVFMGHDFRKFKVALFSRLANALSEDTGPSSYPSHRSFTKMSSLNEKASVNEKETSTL

[5] = biological target: T2, mouse CMKLR1 (chemokine-like receptor …); experiment: radioligand competition on L1.2 transfectants
[6] = biological target: T2, mouse CMKLR1 (chemokine-like receptor …); experiment: radioligand competition on L1.2 transfectants, 125I-chemerin 21-148 displaced by the peptide … [panel B, legend box]
[7] = biological target: T3, mouse CCRL2 (chemokine (CC motif) receptor-like 2), untagged (mouse, UniProt O35457 1-360); experiment: flow cytometry; chemerin inhibits staining of mouse peritoneal mast cells by the competitor anti-mCCRL2 BZ5B8; chemerin blocks anti-mCCRL2 mAb staining of mouse peritoneal mast cells
T3 construct: whole, on cells; also called mCCRL2; mCCRL2/L1.2
T3 sequence (looked up): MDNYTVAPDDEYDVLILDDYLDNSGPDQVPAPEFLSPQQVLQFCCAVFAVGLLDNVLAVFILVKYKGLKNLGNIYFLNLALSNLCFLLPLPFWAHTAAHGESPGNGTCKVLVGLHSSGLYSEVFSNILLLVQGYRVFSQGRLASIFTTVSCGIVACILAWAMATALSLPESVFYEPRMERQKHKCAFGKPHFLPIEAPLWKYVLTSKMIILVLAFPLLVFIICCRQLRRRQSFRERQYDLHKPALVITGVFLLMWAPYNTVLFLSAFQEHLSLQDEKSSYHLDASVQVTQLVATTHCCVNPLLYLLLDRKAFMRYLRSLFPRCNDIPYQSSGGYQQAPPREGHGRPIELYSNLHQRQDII

effect on CCRL2 staining [1]: no effect
synergy of CCL2 and chemerin in transwell migration ([2]; CCL2 with chemerin): did not synergize
transwell migration ([2]; range of doses, CXCL12 and CCL19 act via endogenous CXCR4 and CCR7): did not induce migration
Molecule: CCL2: chemokine purchased from R&D Systems
agonism, intracellular calcium mobilization [3]: neither CCL2 nor chemerin functioned as agonists

EC50 [4]: 26.2 nM
fold less potent (against chemerin protein) [5]: 10 fold
EC50 [6]: 29 nM
B1: bioactive 9-mer carboxyl-terminal chemerin peptide (residues 149-157) (peptide)
peptide: YFPGQFAFS
notes: Synthetic peptide; also called bioactive chemerin peptide

EC50 [7]: 21 nM
B2: human chemerin (as used to block anti-mCCRL2 staining, FIG. 6 Panel A) (ligand, UniProt Q99969 21-157, looked up)
chain: ELTEAQRRGLQVALEEFHKHPPVQWAFQETSVESAVDTPFPAGIFVRLEFKLQQTSCRKRDWKKPECKVRPNGRKRKCLACIKLGSEDKVLGRLVHCPIETQVLREAEEHQETQCLRVQRAGEDPHSFYFPGQFAFS
